# In publication PMC10939073, “The major inducible small heat shock protein HSP20-3 in the tardigrade Ramazzottius varieornatus forms filament-like structures and is an active chaperone” (Cell Stress & Chaperones, 2023):
# B1: HSP20-3NCT, C-terminally truncated HSP20-3 (stop codon immediately after G191, repeated QNTN-motif removed) (domain or fragment, Ramazzottius varieornatus, UniProt A0A1D1UZ79 1-191, looked up)
# chain: MSMQRYDDYNDYGNRQMRPHRGNYEMEPFFGGNLFGGIDHVMRSMTRDLARMEKHIFGSSDTPNIGSLINHNMAMVPNFIERDGQQLAQFQLDVRGFKPEDITIRTSENVMTVTARHEDKSDDHHAIREFRRMVTIPPGMQMEGMKSRLTPNGVLSIEAPFTPQANRQGDFYEIPIQHGSSSNRNSIQNSG
# notes: untagged; same forward primer as HSP20-3; pET23b construct; also called CTD-truncated HSP20–3; source: E. coli BL21 (pLysS), purified (Q-Sepharose ion exchange, Superose 6 size exclusion)
# B2: Ramazzottius varieornatus small heat shock protein HSP20-6 (natural protein, UniProt A0A1D1VFU2 1-195, looked up)
# chain: MSRNLARLLPQITNMLDTPFRRAVTPFNRYRWPASSLGFFDREFERMSNMMDRMHNDLWHSSSLLENPQGSQRGKMNQDLFNIVEENGKKKMRIIFEAERCKPEDIEIKAKGNHLEIKARTEEKGEHFQSIQEYSQYLTLPEGVKAEELTCQFEGGMVTLEAPYTPPAIEAPKDIPVQKEPAEPPVKHNIPIKHE
# notes: a stop codon precedes the vector's C-terminal hexa-histidine tag, so the protein is untagged; pET23b construct; also called RvY_08665; source: E. coli BL21 (pLysS), purified (Q-Sepharose ion exchange, Superose 6 size exclusion)
# B3: Ramazzottius varieornatus small heat shock protein HSP20-3 (natural protein, UniProt A0A1D1UZ79 1-218, looked up)
# chain: MSMQRYDDYNDYGNRQMRPHRGNYEMEPFFGGNLFGGIDHVMRSMTRDLARMEKHIFGSSDTPNIGSLINHNMAMVPNFIERDGQQLAQFQLDVRGFKPEDITIRTSENVMTVTARHEDKSDDHHAIREFRRMVTIPPGMQMEGMKSRLTPNGVLSIEAPFTPQANRQGDFYEIPIQHGSSSNRNSIQNSGQNSSQNTNQNTNQNTNQNTNQNTNQNK
# notes: a stop codon precedes the vector's C-terminal hexa-histidine tag, so the protein is untagged; pET23b construct; also called full length HSP20–3; RvY_03967; source: E. coli BL21 (pLysS), purified (Q-Sepharose ion exchange, Superose 6 size exclusion)
# B4: human CRYAB (HSPB5) (natural protein, UniProt P02511 1-175, looked up)
# chain: MDIAIHHPWIRRPFFPFHSPSRLFDQFFGEHLLESDLFPTSTSLSPFYLRPPSFLRAPSWFDTGLSEMRLEKDRFSVNLDVKHFSPEELKVKVLGDVIEVHGKHEERQDEHGFISREFHRKYRIPADVDPLTITSSLSSDGVLTVNGPRKQVSGPERTIPITREEKPAVTAAPKK
# notes: human alpha-B crystallin CRYAB (HSPB5), recombinant; also called recombinant human CRYAB; source: E. coli, purified (ion exchange and size exclusion chromatography; as described previously)
# Target: the molecule itself
# Experiment: SEC; Superose 6 10/300 column; eluted in 0.5 M NaH2PO4, 0.5 M Na2HPO4, 150 mM NaCl, 5 mM EDTA pH 8.0; calibrated with protein standards (670 kDa to 137 Da); self-association, oligomers
row,Protein,binding result
1,B1,binds
2,B2,binds
3,B3,binds
4,B4,binds
